Results reported in patent US20140120095A1 (Boehringer Ingelheim, published 2014).

Experiments:
[1] = target: T1, recombinant human VEGF165 (human, UniProt P15692-4 27-191, biotinylated in the competition assays); assay: SPR (Biacore), periplasmic extract over immobilised VEGF165, two phase decay fit
T1 construct: also called hVEGF165; rhVEGF165
Method: Dissociation rates of receptor-blocking VHHs are analyzed on Biacore (Biacore T100 instrument, GE Healthcare). HBS-EP+buffer is used as running buffer and experiments are performed at 25° C. […] After immobilization, surfaces are deactivated with 10 min injection of 1M ethanolamine pH8.5. […] Periplasmic extracts of VHHs are injected at a 10-fold dilution in running buffer for 2 min at 45 μl/min and allowed to dissociate for 10 or 15 min. Between different samples, the surfaces are regenerated with regeneration buffer. Data are double referenced by subtraction of the curves on the reference channel and of a blank running buffer injection. The dissociation phase of the processed curves is evaluated by fitting a two phase decay model in the Biacore T100 Evaluation software v2.0.1.

[2] = target: T1, recombinant human VEGF165; assay: competition AlphaScreen, bio-VEGF165 and VEGFR1-Fc
Method: (§1) Finally, streptavidin donor beads (20 μg/ml) are added and after 1 hour of incubation in the dark, fluorescence is measured on the Envision microplate reader.

[3] = target: T1, recombinant human VEGF165; assay: SPR (Biacore), immobilised VEGF165, Two State Reaction model
Method: Samples are injected for 2 min and allowed to dissociate up to 20 min at a flow rate of 45 μl/min. In between sample injections, the chip surface is regenerated with 100 mM HCl. HBS-EP+(Hepes buffer pH7.4+EDTA) is used as running buffer. Binding curves are fitted using a Two State Reaction model by Biacore T100 Evaluation Software v2.0.1.
^{(a)}Heterogeneous binding curve resulting in no 1:1 fit, curves are fitted using a Two State Reaction model by Biacore T100 Evaluation Software v2.0.1

[4] = target: T1, recombinant human VEGF165; assay: competition AlphaScreen, bio-VEGF165 and VEGFR2-Fc
Method: as §1

[5] = target: T2, recombinant human VEGF121 (R&D Systems) (human, UniProt P15692-9 27-147); assay: binding ELISA, coated recombinant human VEGF121
T2 construct: also called rhVEGF121
T2 sequence (looked up): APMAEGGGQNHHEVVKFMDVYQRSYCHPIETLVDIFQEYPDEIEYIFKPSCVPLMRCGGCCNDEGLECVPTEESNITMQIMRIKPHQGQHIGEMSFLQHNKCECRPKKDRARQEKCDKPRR
Method: Binding to recombinant human VEGF121 is assessed via a solid phase binding ELISA. […] Wells are blocked with a casein solution (1% in PBS).

[6] = target: T1, recombinant human VEGF165; assay: competition ELISA, biotinylated VEGF165 to coated VEGFR2-Fc
[7] = target: T1, recombinant human VEGF165; assay: binding ELISA, coated rhVEGF165
[8] = target: T3, recombinant mouse VEGF164 (R&D Systems) (mouse, UniProt Q00731-2 27-190); assay: binding ELISA, coated rmVEGF164
T3 construct: also called rmVEGF164; mVEGF164
T3 sequence (looked up): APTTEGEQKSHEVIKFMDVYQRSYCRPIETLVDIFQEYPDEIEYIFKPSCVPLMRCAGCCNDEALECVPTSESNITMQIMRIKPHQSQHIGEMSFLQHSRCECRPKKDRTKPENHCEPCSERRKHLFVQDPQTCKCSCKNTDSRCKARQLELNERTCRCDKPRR
Method: Cross-reactivity to mouse VEGF164 is determined using a binding ELISA. […] Wells are blocked with a casein solution (1% in PBS). […] A mouse VEGF164 reactive mAb is included as positive control.

[9] = target: T1, recombinant human VEGF165; assay: competition ELISA, biotinylated VEGF165 to coated VEGFR1-Fc

B1: VEGFBII23A06 (VHH, not shown: small tags and cut ends)
VHH: EVQLVESGGGLVQPGDSLKLSCAFSGRTFSSYSMGWFRQAQGKEREFVVAISSGGFIYDAVSLEGRFTISRDNTKNTVYLQTPSLKPEDTAVYYCAASRAYGSSRLRLADTYDYWGQGTQVTVSS
kd (fast) [1]: 0.017
kd (slow) [1]: 3.7e-05
IC50 [2]: 0.4 nM
Kd [3]: 0.7 nM
IC50 [4]: 0.25 nM
EC50 [5]: 0.928 nM
IC50 [6]: 3 nM
EC50 [7]: 0.531 nM
binding result [8]: no binding (tested: dilution series 500 nM-32 pM)
IC50 [9]: 0.9 nM

B2: VEGFBII23B04 (VHH, not shown: small tags and cut ends)
VHH: EVQLVESGGGLVQTGDSLRLSCEVSGRTFSSYSMGWFRQAQGKEREFVVAISKGGYKYDSVSLEGRFTISKDNAKNTVYLQINSLKPEDTAVYYCASSRAYGSSRLRLADTYEYWGQGTQVTVSS
notes: also called VEGFBII23B4
kd (fast) [1]: 0.0088
kd (slow) [1]: 4e-05
IC50 [2]: 0.9 nM
Kd [3]: 0.7 nM
IC50 [4]: 0.16 nM
EC50 [5]: 0.51 nM
IC50 [6]: 2.1 nM
EC50 [7]: 0.297 nM
binding result [8]: no binding (tested: dilution series 500 nM-32 pM)
IC50 [9]: 0.5 nM
